Assay results taken from PMC12416549 (2024).

T1: TNFR1 (Homo sapiens, UniProt P19438)
T1 chain: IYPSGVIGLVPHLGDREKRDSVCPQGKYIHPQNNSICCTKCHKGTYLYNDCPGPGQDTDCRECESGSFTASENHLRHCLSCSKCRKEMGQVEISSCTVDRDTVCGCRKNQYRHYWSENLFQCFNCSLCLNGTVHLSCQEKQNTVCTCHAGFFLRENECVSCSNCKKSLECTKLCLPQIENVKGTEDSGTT


Target: T1, TNFR1
Test: yeast display SC50

Row | apparent Kd (screen) [pM] | Binder
1 | 2730 | K93W (designed binder) SMEEEVEKAAKEYEKKKKEAIEKHLEKLKAKDKEAAERFLKELEEAAKEYAKDEAKTMSEEEAKRRAKKYKEKVLLSELSEEEQKEIKEAEEWLVRTILKYVEEAAK
2 | 869 | K33R (designed binder) SMEEEVEKAAKEYEKKKKEAIEKHLEKLKAKDREAAERFLKELEEAAKEYAKDEAKTMSEEEAKRRAKKYKEKVLLSELSEEEQKEIKEAEEKLVRTILKYVEEAAK
3 | 3300 | A51T (designed binder) SMEEEVEKAAKEYEKKKKEAIEKHLEKLKAKDKEAAERFLKELEEAAKEYTKDEAKTMSEEEAKRRAKKYKEKVLLSELSEEEQKEIKEAEEKLVRTILKYVEEAAK
4 | 718 | E34S (designed binder) SMEEEVEKAAKEYEKKKKEAIEKHLEKLKAKDKSAAERFLKELEEAAKEYAKDEAKTMSEEEAKRRAKKYKEKVLLSELSEEEQKEIKEAEEKLVRTILKYVEEAAK
5 | 490 | A51W (designed binder) SMEEEVEKAAKEYEKKKKEAIEKHLEKLKAKDKEAAERFLKELEEAAKEYWKDEAKTMSEEEAKRRAKKYKEKVLLSELSEEEQKEIKEAEEKLVRTILKYVEEAAK
6 | 5310 | K73P (designed binder) SMEEEVEKAAKEYEKKKKEAIEKHLEKLKAKDKEAAERFLKELEEAAKEYAKDEAKTMSEEEAKRRAKKYKEPVLLSELSEEEQKEIKEAEEKLVRTILKYVEEAAK
7 | 1690 | S59N (designed binder) SMEEEVEKAAKEYEKKKKEAIEKHLEKLKAKDKEAAERFLKELEEAAKEYAKDEAKTMNEEEAKRRAKKYKEKVLLSELSEEEQKEIKEAEEKLVRTILKYVEEAAK
8 | 539 | L25M (designed binder) SMEEEVEKAAKEYEKKKKEAIEKHMEKLKAKDKEAAERFLKELEEAAKEYAKDEAKTMSEEEAKRRAKKYKEKVLLSELSEEEQKEIKEAEEKLVRTILKYVEEAAK
9 | 490 | K48L (designed binder) SMEEEVEKAAKEYEKKKKEAIEKHLEKLKAKDKEAAERFLKELEEAALEYAKDEAKTMSEEEAKRRAKKYKEKVLLSELSEEEQKEIKEAEEKLVRTILKYVEEAAK
10 | 539 | E83R (designed binder) SMEEEVEKAAKEYEKKKKEAIEKHLEKLKAKDKEAAERFLKELEEAAKEYAKDEAKTMSEEEAKRRAKKYKEKVLLSELSEERQKEIKEAEEKLVRTILKYVEEAAK
11 | 446 | K15Y (designed binder) SMEEEVEKAAKEYEYKKKEAIEKHLEKLKAKDKEAAERFLKELEEAAKEYAKDEAKTMSEEEAKRRAKKYKEKVLLSELSEEEQKEIKEAEEKLVRTILKYVEEAAK
12 | 1400 | K100A (designed binder) SMEEEVEKAAKEYEKKKKEAIEKHLEKLKAKDKEAAERFLKELEEAAKEYAKDEAKTMSEEEAKRRAKKYKEKVLLSELSEEEQKEIKEAEEKLVRTILAYVEEAAK
13 | 1860 | L79I (designed binder) SMEEEVEKAAKEYEKKKKEAIEKHLEKLKAKDKEAAERFLKELEEAAKEYAKDEAKTMSEEEAKRRAKKYKEKVLLSEISEEEQKEIKEAEEKLVRTILKYVEEAAK
14 | 1160 | E14D (designed binder) SMEEEVEKAAKEYDKKKKEAIEKHLEKLKAKDKEAAERFLKELEEAAKEYAKDEAKTMSEEEAKRRAKKYKEKVLLSELSEEEQKEIKEAEEKLVRTILKYVEEAAK
15 | 13800 | I98L (designed binder) SMEEEVEKAAKEYEKKKKEAIEKHLEKLKAKDKEAAERFLKELEEAAKEYAKDEAKTMSEEEAKRRAKKYKEKVLLSELSEEEQKEIKEAEEKLVRTLLKYVEEAAK
16 | 446 | M2V (designed binder) SVEEEVEKAAKEYEKKKKEAIEKHLEKLKAKDKEAAERFLKELEEAAKEYAKDEAKTMSEEEAKRRAKKYKEKVLLSELSEEEQKEIKEAEEKLVRTILKYVEEAAK
17 | 446 | K85Y (designed binder) SMEEEVEKAAKEYEKKKKEAIEKHLEKLKAKDKEAAERFLKELEEAAKEYAKDEAKTMSEEEAKRRAKKYKEKVLLSELSEEEQYEIKEAEEKLVRTILKYVEEAAK
18 | 2730 | F39G (designed binder) SMEEEVEKAAKEYEKKKKEAIEKHLEKLKAKDKEAAERGLKELEEAAKEYAKDEAKTMSEEEAKRRAKKYKEKVLLSELSEEEQKEIKEAEEKLVRTILKYVEEAAK

Row | apparent Kd (screen) [pM] | Binder
19 | 446 | L40C (designed binder) SMEEEVEKAAKEYEKKKKEAIEKHLEKLKAKDKEAAERFCKELEEAAKEYAKDEAKTMSEEEAKRRAKKYKEKVLLSELSEEEQKEIKEAEEKLVRTILKYVEEAAK
20 | 7780 | L79P (designed binder) SMEEEVEKAAKEYEKKKKEAIEKHLEKLKAKDKEAAERFLKELEEAAKEYAKDEAKTMSEEEAKRRAKKYKEKVLLSEPSEEEQKEIKEAEEKLVRTILKYVEEAAK
21 | 4830 | K56H (designed binder) SMEEEVEKAAKEYEKKKKEAIEKHLEKLKAKDKEAAERFLKELEEAAKEYAKDEAHTMSEEEAKRRAKKYKEKVLLSELSEEEQKEIKEAEEKLVRTILKYVEEAAK
22 | 539 | A9H (designed binder) SMEEEVEKHAKEYEKKKKEAIEKHLEKLKAKDKEAAERFLKELEEAAKEYAKDEAKTMSEEEAKRRAKKYKEKVLLSELSEEEQKEIKEAEEKLVRTILKYVEEAAK
23 | 446 | K11Q (designed binder) SMEEEVEKAAQEYEKKKKEAIEKHLEKLKAKDKEAAERFLKELEEAAKEYAKDEAKTMSEEEAKRRAKKYKEKVLLSELSEEEQKEIKEAEEKLVRTILKYVEEAAK
24 | 6430 | E42Y (designed binder) SMEEEVEKAAKEYEKKKKEAIEKHLEKLKAKDKEAAERFLKYLEEAAKEYAKDEAKTMSEEEAKRRAKKYKEKVLLSELSEEEQKEIKEAEEKLVRTILKYVEEAAK
25 | 446 | S59G (designed binder) SMEEEVEKAAKEYEKKKKEAIEKHLEKLKAKDKEAAERFLKELEEAAKEYAKDEAKTMGEEEAKRRAKKYKEKVLLSELSEEEQKEIKEAEEKLVRTILKYVEEAAK
26 | 10400 | E7M (designed binder) SMEEEVMKAAKEYEKKKKEAIEKHLEKLKAKDKEAAERFLKELEEAAKEYAKDEAKTMSEEEAKRRAKKYKEKVLLSELSEEEQKEIKEAEEKLVRTILKYVEEAAK
27 | 1400 | E60T (designed binder) SMEEEVEKAAKEYEKKKKEAIEKHLEKLKAKDKEAAERFLKELEEAAKEYAKDEAKTMSTEEAKRRAKKYKEKVLLSELSEEEQKEIKEAEEKLVRTILKYVEEAAK
28 | 1270 | S80V (designed binder) SMEEEVEKAAKEYEKKKKEAIEKHLEKLKAKDKEAAERFLKELEEAAKEYAKDEAKTMSEEEAKRRAKKYKEKVLLSELVEEEQKEIKEAEEKLVRTILKYVEEAAK
29 | 490 | K64G (designed binder) SMEEEVEKAAKEYEKKKKEAIEKHLEKLKAKDKEAAERFLKELEEAAKEYAKDEAKTMSEEEAGRRAKKYKEKVLLSELSEEEQKEIKEAEEKLVRTILKYVEEAAK
30 | 490 | A10V (designed binder) SMEEEVEKAVKEYEKKKKEAIEKHLEKLKAKDKEAAERFLKELEEAAKEYAKDEAKTMSEEEAKRRAKKYKEKVLLSELSEEEQKEIKEAEEKLVRTILKYVEEAAK
31 | 446 | E37N (designed binder) SMEEEVEKAAKEYEKKKKEAIEKHLEKLKAKDKEAANRFLKELEEAAKEYAKDEAKTMSEEEAKRRAKKYKEKVLLSELSEEEQKEIKEAEEKLVRTILKYVEEAAK
32 | 446 | K48A (designed binder) SMEEEVEKAAKEYEKKKKEAIEKHLEKLKAKDKEAAERFLKELEEAAAEYAKDEAKTMSEEEAKRRAKKYKEKVLLSELSEEEQKEIKEAEEKLVRTILKYVEEAAK
33 | 10400 | E54Q (designed binder) SMEEEVEKAAKEYEKKKKEAIEKHLEKLKAKDKEAAERFLKELEEAAKEYAKDQAKTMSEEEAKRRAKKYKEKVLLSELSEEEQKEIKEAEEKLVRTILKYVEEAAK
34 | 446 | E5P (designed binder) SMEEPVEKAAKEYEKKKKEAIEKHLEKLKAKDKEAAERFLKELEEAAKEYAKDEAKTMSEEEAKRRAKKYKEKVLLSELSEEEQKEIKEAEEKLVRTILKYVEEAAK
35 | 490 | A47Q (designed binder) SMEEEVEKAAKEYEKKKKEAIEKHLEKLKAKDKEAAERFLKELEEAQKEYAKDEAKTMSEEEAKRRAKKYKEKVLLSELSEEEQKEIKEAEEKLVRTILKYVEEAAK
